± gives the uncertainty stated by the source.

The data set can be described thus: self-splicing fitness, log relative to wild type (ln ratio); higher = more splicing; Tetrahymena group I intron in knt gene, E. coli kanamycin selection, DiMSum; sequences stand for … in CUCUCU…GGAGGGAAAAGUUAUCAGGCAUGCACCUGGUAGCUAGUCUUUAAACCAAUAGAUUGCAUCGGUUUAAAAGGCAAGACCGUCAAAUUGCGGGAAAGGGGUCAACAGCCGUUCAGUACCAAGUCUCAGGGGAAACUUUGAGAUGGCCUUGCAAAGGGUAUGGUAAUAAGCUGACGGACAUGGUCCUAACCACGCAGCCAAGUCCUAAGUCAACAGAUCUUCUGUUGAUAUGGAUGCAGUUCACAGACUAAAUGUCGGUCGGGGAAGAUGUAUUCUUCUCAUAAGAUAUAGUCGGACCUCUCCUUAAUGGGAGCUAGCGGAUGAAGUGAUGCAACACUGGAGCCGCUGGGAACUAAUUUGUAUGCGAAAGUAUAUUGAUUAGUUUUGGAGUACUCGUGGUCG
In outline: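 A randomised library covering all eight P1ex-region intron nucleotides was built with the intron in the knt kanamycin-resistance gene on pET-22b(+) and held in E. coli BL21(DE3). Cells were grown overnight at 37°C or 30°C on LB agar, with or without 25 μg/mL kanamycin, plus 100 μg/mL carbenicillin, 50 μM IPTG and 0.2% rhamnose, and pooled colonies were amplicon-sequenced on an Illumina HiSeq 2500. DiMSum fitness is the error-weighted combination of wild-type-normalised replicate fold changes, kanamycin versus none.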

As to UGUAAGCAAUAUUACGGUGC, the “self-splicing fitness (ln)” value reads like this: (30 °C) -3.82 ± 0.35; (37 °C) -2.13 ± 0.26.

Turning to CACAAGCAAUAUUACGUACU, the “self-splicing fitness (ln)” value was -3.09 ± 0.12 (30 °C) and -0.878 ± 0.1 (37 °C).

Turning to AUUAAGCAAUAUUACGAUAC, the “self-splicing fitness (ln)” value (30 °C) was -1.93 ± 0.11 and the “self-splicing fitness (ln)” value (37 °C) is -0.885 ± 0.15.

Take GUCAAGCAAUAUUACGCAGG: the “self-splicing fitness (ln)” value (30 °C) was -4.19 ± 0.36 and the “self-splicing fitness (ln)” value (37 °C) was -2.3 ± 0.3.

Consider AUAAAGCAAUAUUACGCAGG, for which the “self-splicing fitness (ln)” value reads like this: (30 °C) -1.32 ± 0.098; (37 °C) -0.913 ± 0.14.

With UCUCAGCAAUAUUACGCAGU, the “self-splicing fitness (ln)” value by setting is: (30 °C) -2.93 ± 0.16; (37 °C) -1.96 ± 0.19.

Consider UAAGAGCAAUAUUACGAGCA, for which the “self-splicing fitness (ln)” value by setting is: (30 °C) -3.18 ± 0.29; (37 °C) -0.84 ± 0.14.

For GAUCAGCAAUAUUACGUGUC, the “self-splicing fitness (ln)” value is, setting by setting: (30 °C) -2.74 ± 0.11; (37 °C) -2.19 ± 0.17.

Take AUUGAGCAAUAUUACGACUA: the “self-splicing fitness (ln)” value (30 °C) is -1.2 ± 0.42 and the “self-splicing fitness (ln)” value (37 °C) was -1.89 ± 0.41.

For the sequence UGCUAGCAAUAUUACGACCU, the “self-splicing fitness (ln)” value runs as follows: (30 °C) -0.548 ± 0.088; (37 °C) -0.345 ± 0.1.

Regarding GAUUAGCAAUAUUACGAUCU, the “self-splicing fitness (ln)” value is -0.776 ± 0.2 (30 °C) and -2.2 ± 0.38 (37 °C).

On to ACAUAGCAAUAUUACGAAAA, for which the “self-splicing fitness (ln)” value (30 °C) was -2.4 ± 0.25 and the “self-splicing fitness (ln)” value (37 °C) is -3.31 ± 0.3.

For the sequence UGCAAGCAAUAUUACGAGGG, the “self-splicing fitness (ln)” value runs as follows: (30 °C) -3.56 ± 0.23; (37 °C) -1.77 ± 0.17.

In the case of ACACAGCAAUAUUACGACAU, the “self-splicing fitness (ln)” value was -0.676 ± 0.01 (30 °C) and -0.0836 ± 0.031 (37 °C).

CUUAAGCAAUAUUACGUUGC: the “self-splicing fitness (ln)” value (37 °C) was -2.03 ± 0.35.

Regarding AGACAGCAAUAUUACGAUAU, the “self-splicing fitness (ln)” value is, setting by setting: (30 °C) -1.93 ± 0.064; (37 °C) -0.802 ± 0.07.

In the case of GGAUAGCAAUAUUACGUGUC, the “self-splicing fitness (ln)” value (30 °C) is -3.16 ± 0.28.

CUAAAGCAAUAUUACGCAAG: the “self-splicing fitness (ln)” value is -1.11 ± 0.089 (30 °C) and -0.574 ± 0.12 (37 °C).

Consider UUGGAGCAAUAUUACGCGGC, for which, where the note is “37 °C”, the “self-splicing fitness (ln)” value is -1.26 ± 0.41.

Consider AUACAGCAAUAUUACGGGCU, for which the “self-splicing fitness (ln)” value was -2.77 ± 0.11 (30 °C) and -1.29 ± 0.12 (37 °C).

CCGGAGCAAUAUUACGGUGG: the “self-splicing fitness (ln)” value was -3.8 ± 0.37 (30 °C) and -2.61 ± 0.36 (37 °C).

ACGCAGCAAUAUUACGUUCC: the “self-splicing fitness (ln)” value was -1.71 ± 0.11 (30 °C) and -2.26 ± 0.19 (37 °C).

With CCGAAGCAAUAUUACGCGCC, the “self-splicing fitness (ln)” value (30 °C) is -2.58 ± 0.23 and the “self-splicing fitness (ln)” value (37 °C) is -2.27 ± 0.3.

AGAGAGCAAUAUUACGCUGA: the “self-splicing fitness (ln)” value by setting is: (30 °C) -2.75 ± 0.18; (37 °C) -2.94 ± 0.28.

Turning to AGUGAGCAAUAUUACGUUGG, the “self-splicing fitness (ln)” value reads like this: (30 °C) -4.42 ± 0.36; (37 °C) -1.98 ± 0.26.

With CGGCAGCAAUAUUACGAUAA, the “self-splicing fitness (ln)” value (30 °C) was -2.07 ± 0.21 and the “self-splicing fitness (ln)” value (37 °C) was -1.96 ± 0.34.

On to GAGUAGCAAUAUUACGUUAC, for which the “self-splicing fitness (ln)” value reads like this: (30 °C) -4.57 ± 0.33; (37 °C) -1.57 ± 0.17.

CUGGAGCAAUAUUACGUGUG: the “self-splicing fitness (ln)” value by setting is: (30 °C) -1.53 ± 0.11; (37 °C) -0.75 ± 0.13.

UGGGAGCAAUAUUACGAGGC: the “self-splicing fitness (ln)” value (30 °C) was -2.02 ± 0.35.

For CCUGAGCAAUAUUACGGGAC, the “self-splicing fitness (ln)” value (30 °C) was -4.19 ± 0.46 and the “self-splicing fitness (ln)” value (37 °C) was -2.08 ± 0.27.

Regarding CGGAAGCAAUAUUACGGGUC, the “self-splicing fitness (ln)” value was -3.78 ± 0.19 (30 °C) and -2.59 ± 0.21 (37 °C).

As for AGCCAGCAAUAUUACGCCGC, the “self-splicing fitness (ln)” value reads like this: (30 °C) -2.98 ± 0.28; (37 °C) -3.25 ± 0.37.

As to GCUAAGCAAUAUUACGAGAG, the “self-splicing fitness (ln)” value runs as follows: (30 °C) -2.38 ± 0.12; (37 °C) -1.27 ± 0.14.

Take GGAAAGCAAUAUUACGUAUC: the “self-splicing fitness (ln)” value runs as follows: (30 °C) -2.09 ± 0.18; (37 °C) -1.01 ± 0.15.

Regarding GUUUAGCAAUAUUACGAUCG, the “self-splicing fitness (ln)” value by setting is: (30 °C) -1.61 ± 0.13; (37 °C) -0.512 ± 0.19.

In the case of UAGAAGCAAUAUUACGAUGC, the “self-splicing fitness (ln)” value runs as follows: (30 °C) -1.9 ± 0.24; (37 °C) -0.852 ± 0.2.

As to AGUUAGCAAUAUUACGUCGA, the “self-splicing fitness (ln)” value is -1.37 ± 0.12 (30 °C) and -1.02 ± 0.13 (37 °C).

Regarding CCAUAGCAAUAUUACGGUUU, the “self-splicing fitness (ln)” value reads like this: (30 °C) -4.54 ± 0.25; (37 °C) -2.79 ± 0.21.

In the case of GAAUAGCAAUAUUACGUCGA, the “self-splicing fitness (ln)” value by setting is: (30 °C) -0.367 ± 0.11; (37 °C) -0.794 ± 0.12.

For ACUAAGCAAUAUUACGAUAA, the “self-splicing fitness (ln)” value is -1.94 ± 0.17 (30 °C) and -0.57 ± 0.17 (37 °C).

For CCCAAGCAAUAUUACGUAAA, the “self-splicing fitness (ln)” value runs as follows: (30 °C) -4.05 ± 0.33; (37 °C) -3.46 ± 0.39.

Regarding CUCAAGCAAUAUUACGGGUG, the “self-splicing fitness (ln)” value runs as follows: (30 °C) -1.43 ± 0.059; (37 °C) -1.2 ± 0.073.

Regarding UUGAAGCAAUAUUACGAUCA, the “self-splicing fitness (ln)” value by setting is: (30 °C) -0.786 ± 0.1; (37 °C) 0.00258 ± 0.15.

With CUUUAGCAAUAUUACGAAAC, where the note is “37 °C”, the “self-splicing fitness (ln)” value is -1.65 ± 0.32.

With GAGUAGCAAUAUUACGUAUC, the “self-splicing fitness (ln)” value (30 °C) is -3.05 ± 0.14 and the “self-splicing fitness (ln)” value (37 °C) was -0.698 ± 0.11.

Consider UAAGAGCAAUAUUACGCUUU, for which the “self-splicing fitness (ln)” value (30 °C) was -2.81 ± 0.18 and the “self-splicing fitness (ln)” value (37 °C) was -1.85 ± 0.31.

UUGUAGCAAUAUUACGCCUC: the “self-splicing fitness (ln)” value (30 °C) was -2.07 ± 0.48.

Turning to ACUUAGCAAUAUUACGGGAA, the “self-splicing fitness (ln)” value runs as follows: (30 °C) -1.99 ± 0.2; (37 °C) -1.65 ± 0.16.

For the sequence GUUAAGCAAUAUUACGAGGU, where the note is “37 °C”, the “self-splicing fitness (ln)” value was -2.51 ± 0.34.

Regarding AUAGAGCAAUAUUACGUCCC, the “self-splicing fitness (ln)” value (30 °C) is -2.36 ± 0.48.

CUGUAGCAAUAUUACGUAUG: the “self-splicing fitness (ln)” value reads like this: (30 °C) -0.387 ± 0.11; (37 °C) -0.224 ± 0.16.

On to CCAGAGCAAUAUUACGGUAG, for which the “self-splicing fitness (ln)” value runs as follows: (30 °C) -2.14 ± 0.11; (37 °C) -2.34 ± 0.2.

For UAGGAGCAAUAUUACGUUAG, the “self-splicing fitness (ln)” value runs as follows: (30 °C) -3.8 ± 0.3; (37 °C) -2.71 ± 0.49.

With GGUUAGCAAUAUUACGGGUA, the “self-splicing fitness (ln)” value was -1.11 ± 0.22 (30 °C) and -1.39 ± 0.19 (37 °C).

For the sequence AACUAGCAAUAUUACGAGCA, the “self-splicing fitness (ln)” value runs as follows: (30 °C) -1.68 ± 0.12; (37 °C) -0.209 ± 0.11.

In the case of AAAGAGCAAUAUUACGUCCA, the “self-splicing fitness (ln)” value (30 °C) was -1.76 ± 0.33 and the “self-splicing fitness (ln)” value (37 °C) was -1.93 ± 0.36.

With ACAGAGCAAUAUUACGUUGC, the “self-splicing fitness (ln)” value (30 °C) is -2.78 ± 0.18.

AUGAAGCAAUAUUACGGACC: the “self-splicing fitness (ln)” value is, setting by setting: (30 °C) -0.516 ± 0.22; (37 °C) 0.108 ± 0.23.

With GGCUAGCAAUAUUACGCACA, the “self-splicing fitness (ln)” value by setting is: (30 °C) -0.263 ± 0.12; (37 °C) 0.1 ± 0.16.

Turning to GUCGAGCAAUAUUACGAUUC, the “self-splicing fitness (ln)” value reads like this: (30 °C) -1.64 ± 0.24; (37 °C) -0.941 ± 0.26.

Regarding GGUAAGCAAUAUUACGAAGC, the “self-splicing fitness (ln)” value is -3.07 ± 0.23 (30 °C) and -0.664 ± 0.23 (37 °C).

Take AAUUAGCAAUAUUACGGUUU: the “self-splicing fitness (ln)” value is -1.16 ± 0.063 (30 °C) and -0.716 ± 0.089 (37 °C).

With CCACAGCAAUAUUACGCCGC, the “self-splicing fitness (ln)” value (30 °C) is -3.12 ± 0.21 and the “self-splicing fitness (ln)” value (37 °C) was -3.49 ± 0.27.

The values above are taken from the supplement of paper PMC7877785.
